Source: paper PMC10432269, “Diverse modes of H3K36me3-guided nucleosomal deacetylation by Rpd3S” (Nature, 2023)
No end group written: not given here.

T1: unmodified histone H3 residues 1–10 peptide
T1 construct: Histone H3 residues 1-10, unmodified; also called H3_(1–10); H3un; source: synthetic peptide
T1 peptide: ARTKQTARKS

B1: Rco1 (natural protein, S. cerevisiae, UniProt Q04779 1-684, looked up)
chain: MDTSKKDTTRSPSHSNSSSPSSSSLSSSSSKEKKRPKRLSSQNVNYDLKRRKIITSEGIERSFKNEHSNLAVEDNIPEEEPKELLEKDSKGNIIKLNEPSTISEDSKVSVTGLPLNKGPSEKIKRESLWNYRKNLGGQSNNSEMTLVPSKRFTQVPKNFQDLNRNDLKTFLTENMTEESNIRSTIGWNGDIINRTRDREPESDRDNKKLSNIRTKIILSTNATYDSKSKLFGQNSIKSTSNASEKIFRDKNNSTIDFENEDFCSACNQSGSFLCCDTCPKSFHFLCLDPPIDPNNLPKGDWHCNECKFKIFINNSMATLKKIESNFIKQNNNVKIFAKLLFNIDSHNPKQFQLPNYIKETFPAVKTGSRGQYSDENDKIPLTDRQLFNTSYGQSITKLDSYNPDTHIDSNSGKFLICYKCNQTRLGSWSHPENSRLIMTCDYCQTPWHLDCVPRASFKNLGSKWKCPLHSPTKVYKKIHHCQEDNSVNYKVWKKQRLINKKNQLYYEPLQKIGYQNNGNIQIIPTTSHTDYDFNQDFKITQIDENSIKYDFFDKIYKSKMVQKRKLFQFQESLIDKLVSNGSQNGNSEDNMVKDIASLIYFQVSNNDKSSNNKSASKSNNLRKLWDLKELTNVVVPNELDSIQFNDFSSDEIKHLLYLKKIIESKPKEELLKFLNIENPENQSE
notes: Rco1, S. cerevisiae, full length; residues 107-565 (Rco1-A) and 262-358 (Rco1-B) are modelled in the structure; The complex was captured on strep beads by the Strep-tag of Rco1; the tag was then cleaved with TEV protease before anion exchange and SEC; Two copies (Rco1-A, Rco1-B) stand in the Rpd3S complex; also called Rco1-A; Rco1-B; not shown: Strep-tag, N-terminal, cleaved

What was measured:
[1] = molecular target: T1, unmodified histone H3 residues 1–10 …; assay: ITC; 25 °C, MicroCal PEAQ-ITC; 20 mM Tris 7.5, 50 mM NaCl, 5% glycerol; one set of binding sites model; conditions: both partners purified
[2] = molecular target: the molecule itself; assay: cryo-EM structure; free Rpd3S complex, subunits co-expressed in Sf9 and purified together; stabilised by GraFix (glycerol gradient with 0.15% glutaraldehyde); 3.2 Å overall, local maps 2.7 Å and 3.2 Å

| Binder | Kd [1] | binding result [2] |
| --- | --- | --- |
| EDFCSACNQSGSFLCCDTCPKSFHFLCLDPPIDPNNLPKGDWHCNECKFK (domain or fragment, cysteine pairing not given here; also: Zn2+ bound) [PHD1 domain of Rco1] | ~39 µM | – |
| B1 | – | binds |
